Data: publication PMC7913696

B1: T3-PolDIP2 (AA 217–368), C-terminal fragment with the ApaG-like domain (domain or fragment)
chain: LRAWQEKNHPWLELSDVHRETTENIRVTVIPFYMGMREAQNSHVYWWRYCIRLENLDSDVVQLRERHWRIFSLSGTLETVRGRGVVGREPVLSKEQPAFQYSSHVSLQASSGHMWGTFRFERPDGSHFDVRIPPFSLESNKDEKTPPSGLHW

What was measured:
PrimPol WT (human) [1] = target: T1, PrimPol WT (human) (UniProt Q96LW4)
T1 sequence: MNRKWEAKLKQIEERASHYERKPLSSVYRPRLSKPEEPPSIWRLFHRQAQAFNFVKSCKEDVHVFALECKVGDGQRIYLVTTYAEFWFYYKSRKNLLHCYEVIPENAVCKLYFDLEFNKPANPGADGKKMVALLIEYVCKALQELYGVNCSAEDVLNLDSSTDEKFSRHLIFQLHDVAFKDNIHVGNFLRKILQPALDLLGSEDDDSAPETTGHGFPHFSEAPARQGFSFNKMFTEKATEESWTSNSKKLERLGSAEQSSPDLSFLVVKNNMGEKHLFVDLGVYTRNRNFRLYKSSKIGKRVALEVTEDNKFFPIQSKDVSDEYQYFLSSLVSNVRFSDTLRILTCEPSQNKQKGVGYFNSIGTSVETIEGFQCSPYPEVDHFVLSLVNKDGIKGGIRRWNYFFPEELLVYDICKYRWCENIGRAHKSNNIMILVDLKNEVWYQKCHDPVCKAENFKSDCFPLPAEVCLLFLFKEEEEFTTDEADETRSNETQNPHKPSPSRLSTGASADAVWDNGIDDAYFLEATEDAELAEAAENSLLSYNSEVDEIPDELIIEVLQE

PrimPol WT (human) [2] = target: T1, PrimPol WT (human); remark: listed apart in the source

Molecule | primer extension by 150 nM PrimPol on a 25/70-mer primer/template with increasing FL-PolDIP2 (up to 500 nM): percent of DNA substrate extended >3 nt (PrimPol WT (human) [1]) | filter binding of [α-32P]dCTP (1 μM dCTP, 300 nM primer/template, 600 nM PrimPol and 600 nM FL-PolDIP2, Ca2+, 37°C), against PrimPol alone (PrimPol WT (human) [2]) | primer extension by 150 nM PrimPol on a 25/70-mer primer/template with increasing T3-PolDIP2 (from 150 nM): percent of DNA substrate extended >3 nt (PrimPol WT (human) [1])
full-length (FL) human PolDIP2 tagged with C-terminal hexa-histidine (from UniProt Q9Y2S7 52-368) (natural protein) | 46% | 3 fold | –
B1 | – | – | 32%
